As usually defined, the Kd is a measure of binding affinity in units of concentration. A high value points to weaker binding.

Drawing on paper PMC4822050, this text covers binding result and Kd for one molecule.

One series addresses T1, UHRF1 deltaSRA (human, UniProt Q96T88 1-793, del414-617).
T1 sequence: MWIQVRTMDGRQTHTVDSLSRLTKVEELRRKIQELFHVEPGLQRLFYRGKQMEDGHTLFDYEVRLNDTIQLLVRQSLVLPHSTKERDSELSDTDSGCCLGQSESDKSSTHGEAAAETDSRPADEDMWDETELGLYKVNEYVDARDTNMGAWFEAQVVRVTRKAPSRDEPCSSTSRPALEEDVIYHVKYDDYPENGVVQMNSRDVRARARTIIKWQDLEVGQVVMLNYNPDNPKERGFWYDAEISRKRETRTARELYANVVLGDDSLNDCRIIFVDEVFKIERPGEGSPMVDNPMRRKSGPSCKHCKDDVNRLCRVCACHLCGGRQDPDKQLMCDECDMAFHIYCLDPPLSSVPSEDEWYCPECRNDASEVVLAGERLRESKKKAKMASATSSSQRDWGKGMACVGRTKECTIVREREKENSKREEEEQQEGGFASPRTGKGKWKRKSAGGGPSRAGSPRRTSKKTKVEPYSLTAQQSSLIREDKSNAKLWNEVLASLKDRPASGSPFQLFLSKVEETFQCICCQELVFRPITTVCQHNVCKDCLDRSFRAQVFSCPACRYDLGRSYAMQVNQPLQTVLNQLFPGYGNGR
Kind of series: FP; not detectable; ITC: 10 mM HEPES pH 8.0, 100 mM NaCl, 18 C; EMSA: 20 mM HEPES pH 7.5, 100 mM NaCl, 8% glycerol, 1 mM DTT, on ice; pull-down: 20 mM HEPES-NaOH pH 8.0, 100 mM NaC. (Mobility shift assays separate free from complexed probe on a gel.)

The target of the next series is T2, SRA-Spacer (human, UniProt Q96T88 414-674).
T2 sequence: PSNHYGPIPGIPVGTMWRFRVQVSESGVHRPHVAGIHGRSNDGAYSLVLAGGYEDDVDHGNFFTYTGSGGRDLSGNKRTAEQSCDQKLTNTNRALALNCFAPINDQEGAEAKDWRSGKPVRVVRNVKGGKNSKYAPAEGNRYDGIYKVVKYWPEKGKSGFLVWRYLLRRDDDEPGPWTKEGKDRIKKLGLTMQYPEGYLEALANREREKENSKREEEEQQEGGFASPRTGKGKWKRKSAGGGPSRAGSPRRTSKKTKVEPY
Kind of series: FP; DNA length series; ITC: 10 mM HEPES pH 8.0, 100 mM NaCl, 18 C; EMSA: 20 mM HEPES pH 7.5, 100 mM NaCl, 8% glycerol, 1 mM DTT, on ice; pull-down: 20 mM HEPES-NaOH pH 8.0, 100 mM NaC.

B1: FAM-12bp-HM-DNA (dsDNA)
DNA 1: CCATGCGCTGAC
DNA 2: GTCAGCGCATGG
modifications: 5-methyl-dC at position 6 of strand 2 (GTCAGXGCATGG)
Regarding B1, the binding result with UHRF1 deltaSRA is listed as “no binding”. For the same molecule, binding with SRA-Spacer was put at a Kd of 340 ± 90 nM.
